Values joined by “and” are separate entries in the source; they are usually repeats but may differ in a detail not shown here. Identical values can stand only once. Like-named read-outs stand apart in the source and are kept apart here.
B1: Dylight488-labeled GluA2-ATD (amino-terminal domain of the AMPA receptor GluA2) (domain or fragment, UniProt P19491 22-404, looked up)
chain: VSSNSIQIGGLFPRGADQEYSAFRVGMVQFSTSEFRLTPHIDNLEVANSFAVTNAFCSQFSRGVYAIFGFYDKKSVNTITSFCGTLHVSFITPSFPTDGTHPFVIQMRPDLKGALLSLIEYYQWDKFAYLYDSDRGLSTLQAVLDSAAEKKWQVTAINVGNINNDKKDETYRSLFQDLELKKERRVILDCERDKVNDIVDQVITIGKHVKGYHYIIANLGFTDGDLLKIQFGGANVSGFQIVDYDDSLVSKFIERWSTLEEKEYPGAHTATIKYTSALTYDAVQVMTEAFRNLRKQRIEISRRGNAGDCLANPAVPWGQGVEIERALKQVQVEGLSGNIKFDQNGKRINYTINIMELKTNGPRKIGYWSEVDKMVVTLTELPS
modifications: Dylight488 (N-hydroxysuccinimide ester-activated dye); native complex glycosylation
notes: signal peptide in the construct; secreted; Cut with thrombin after IMAC; also called DL488-GluA2; source: HEK293T, transient transfection, secreted, purified (HiTrap NTA, thrombin, HiTrap Q); labelled with Dylight488 and separated from free dye on Superdex 75; not shown: His8, C-terminal, cleaved
B2: fusion protein of GluA3-ATD and rsEGFP2 (rsEGFP2-GluA3) (domain or fragment, UniProt P19492 23-408, looked up)
chain: GFPNTISIGGLFMRNTVQEHSAFRFAVQLYNTNQNTTEKPFHLNYHVDHLDSSNSFSVTNAFCSQFSRGVYAIFGFYDQMSMNTLTSFCGALHTSFVTPSFPTDADVQFVIQMRPALKGAILSLLSYYKWEKFVYLYDTERGFSVLQAIMEAAVQNNWQVTARSVGNIKDVQEFRRIIEEMDRRQEKRYLIDCEVERINTILEQVVILGKHSRGYHYMLANLGFTDILLERVMHGGANITGFQIVNNENPMVQQFIQRWVRLDEREFPEAKNAPLKYTSALTHDAILVIAEAFRYLRRQRVDVSRRGSAGDCLANPAVPWSQGIDIERALKMVQVQGMTGNIQFDTYGRRTNYTIDVYEMKVSGSRKAGYWNEYERFVPFSDQQIS
modifications: native complex glycosylation
notes: GluA3 AMPA receptor amino-terminal domain, residues Gly23-Ser408; The fluorescent protein is the detection tag and is not written as a part; it is joined by SGSG (before) and SGS (after); The methods call the fluorescent protein rsEGFP, the results rsEGFP2; Cut with thrombin; also called rsEGFP-GluA3 ATD fusion construct; source: HEK293T, transient transfection, secreted, purified (HiTrap NTA, …)

Legend:
[1] = molecular target: GluA3 ATD (Rattus norvegicus) (UniProt P19492); details: cited from earlier work
[2] = molecular target: GluA2 ATD (Rattus norvegicus) (UniProt P19491); details: cited from earlier work
[3] = molecular target: GluA2 ATD (Rattus norvegicus) (UniProt P19491); details: cited from earlier work; remark: listed apart in the source
[4] = molecular target: GluA3 ATD (Rattus norvegicus) (UniProt P19492); details: cited from earlier work; remark: listed apart in the source
[5] = molecular target: B2; experiment: AUC; FRAP-like FDS-SV, equimolar mixtures of rsEGFP2-GluA3 and DL488-GluA2, 20 min stationary 488 nm exposure at 6.5 cm before scanning, 50,000 rpm, 20°C; component sw isotherm with competitive homo- and hetero-dimerization model; details: both partners purified
[6] = molecular target: the molecule itself; experiment: AUC; fluorescence-detected sedimentation velocity (FDS-SV), dilution series of DL488-GluA2 from 0.2 nM to 200 nM, 50,000 rpm, 20°C, 488 nm excitation; c(s) and sw isotherm with monomer-dimer model; dimer to monomers; 0.1 mg/ml unlabeled BSA added
[7] = molecular target: B2; experiment: AUC; MCMC FDS-SV, equimolar dilution series of DL488-GluA2 and rsEGFP2-GluA3 from 0.1-30 nM, 13 mW excitation beam, 50,000 rpm, 20°C; global fit of component sw isotherms with a linked homo- and hetero-dimerization model, K_(d,22) fixed at 27.1 nM; details: both partners purified
[8] = molecular target: B1; experiment: as above; details: both partners purified

Molecule: GluA3 ATD (from UniProt P19492)
Kd [1]: 5600 nM

Molecule: GluA2 ATD (from UniProt P19491)
Kd [2]: 1.8 nM
Kd [3]: 20.5 nM
Kd [4]: 1.3 nM

Molecule: B1
Kd [5]: 0.68 nM
Kd [6]: 24 nM and 27.1 nM
stoichiometry N [6]: 2
Kd [7]: 0.32 nM

Molecule: B2
stoichiometry N [8]: 1

— article PMC4985284, “Monochromatic multicomponent fluorescence sedimentation velocity for the study of high-affinity protein interactions” (eLife, 2016)
